Source: publication PMC9891525

Target: SARS-CoV-2 Delta variant S1 protein (SARS-CoV-2)
Assay: SPR

With original monoclonal antibody REGN10987 as the substance, how does the Kd read?
Its Kd is 0.9 nM.
